From US20200399391A1 (Sanofi, published 2020)

T1: FcγRIIb expressed on HEK cells (UniProt P31994 43-310, limits assumed)
T1 construct: whole, on cells; also called HEK293T-FcγRIIb
T1 sequence (looked up): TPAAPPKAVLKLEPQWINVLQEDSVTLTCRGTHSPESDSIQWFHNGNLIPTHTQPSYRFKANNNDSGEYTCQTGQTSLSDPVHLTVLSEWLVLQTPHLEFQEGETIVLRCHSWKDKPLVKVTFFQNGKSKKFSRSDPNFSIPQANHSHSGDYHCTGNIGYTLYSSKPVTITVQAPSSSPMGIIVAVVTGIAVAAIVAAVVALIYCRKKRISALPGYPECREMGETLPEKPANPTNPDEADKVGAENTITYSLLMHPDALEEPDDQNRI

T2: FcγRIIa extracellular domain with H131, histag (Biorbyt, batch ORB138408) (human, UniProt P12318 34-217)
T2 construct: Bought protein; also called FcγRIIa H131; not shown: histag
T2 sequence: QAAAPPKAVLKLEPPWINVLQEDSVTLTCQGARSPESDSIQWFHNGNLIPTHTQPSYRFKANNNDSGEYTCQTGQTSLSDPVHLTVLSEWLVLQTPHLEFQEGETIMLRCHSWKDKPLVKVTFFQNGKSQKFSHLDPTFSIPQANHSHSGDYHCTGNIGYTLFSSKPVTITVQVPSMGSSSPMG

T3: FcγRIIa 131H expressed on HEK cells (human, UniProt P12318 34-317)
T3 sequence: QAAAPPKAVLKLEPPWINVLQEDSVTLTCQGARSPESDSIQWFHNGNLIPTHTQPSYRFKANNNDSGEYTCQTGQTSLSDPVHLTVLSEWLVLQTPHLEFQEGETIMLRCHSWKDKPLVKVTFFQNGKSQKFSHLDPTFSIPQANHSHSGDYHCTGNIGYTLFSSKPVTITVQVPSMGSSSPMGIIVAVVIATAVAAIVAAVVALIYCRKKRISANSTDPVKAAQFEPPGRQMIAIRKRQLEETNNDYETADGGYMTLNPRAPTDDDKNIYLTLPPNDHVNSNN


Columns and labels:
[1] = molecular target: T4, FcγRIIIa 158V expressed on cells (human, UniProt P08637 17-254); experiment: cell-based or functional assay
[2] = molecular target: T5, FcγRI expressed on HEK cells (UniProt P12314 16-374, limits assumed); experiment: flow cytometry on HEK293T cells expressing the receptor, FITC anti-human IgG; mean Kd
T5 construct: whole, on cells; also called HEK293T-FcγRI

[3] = molecular target: T1, FcγRIIb expressed on HEK cells; experiment: as above
[4] = molecular target: T2, FcγRIIa extracellular domain with H131, …; experiment: AlphaScreen competition (relative IC50): untagged mAb displaces biotinylated anti-CD38 native IgG1 from FcγRIIa-histag
[5] = molecular target: T4, FcγRIIIa 158V expressed on cells; experiment: cell-based or functional assay; remark: listed apart in the source
[6] = molecular target: T6, FcγRIIIa (CD16a) extracellular domain with V158, C-terminal histag (human, UniProt P08637 17-208); experiment: SPR (BIAcore 2000), FcγRIIIa-histag captured on anti-His IgG, mAb 8-256 nM, two-state fit
T6 construct: also called FcγRIIIa 158V; FcγRIIIa-histag; not shown: C-terminal histag

[7] = molecular target: T5, FcγRI expressed on HEK cells; experiment: flow cytometry on HEK293T cells expressing the receptor
[8] = molecular target: T1, FcγRIIb expressed on HEK cells; experiment: as above
[9] = molecular target: T4, FcγRIIIa 158V expressed on cells; experiment: flow cytometry on HEK293T cells expressing the receptor, FITC anti-human IgG; mean apparent Kd
[10] = molecular target: T3, FcγRIIa 131H expressed on HEK cells; experiment: flow cytometry on HEK293T cells expressing the receptor, FITC anti-human IgG; mean Kd
[11] = molecular target: T3, FcγRIIa 131H expressed on HEK cells; experiment: flow cytometry on HEK293T cells expressing the receptor
[12] = molecular target: T4, FcγRIIIa 158V expressed on cells; experiment: cell-based or functional assay; remark: listed apart in the source
[13] = molecular target: T4, FcγRIIIa 158V expressed on cells; experiment: flow cytometry on HEK293T cells expressing the receptor
[14] = molecular target: T1, FcγRIIb expressed on HEK cells; experiment: flow cytometry on HEK293T cells expressing the receptor; the text calls it fold lower affinity
[15] = molecular target: T6, FcγRIIIa (CD16a) extracellular domain …; experiment: SPR, against mAb 1
human CD38 [16] = molecular target: T7, human CD38 (human, UniProt P28907 43-300, limits assumed); experiment: SPR (Biacore), mAb captured on anti-Fc CM5 chip, huCD38 injected; n = 3
T7 construct: Soluble analyte in SPR; the construct (limits, tags) is not described; also called huCD38

human CD38 [17] = molecular target: T7, human CD38; experiment: SPR (Biacore), mAb captured on anti-Fc chip, after thermal stress of the mAb (14 days at 40 C); n = 3

Row | Binder | ADCC of RPMI-8226 cells, EC50 (calcein release) [1] [ng/mL] | Kd [2] [nM] | IC50 [4] [nM] | ADCC of MOLP-8 cells, EC50 (calcein release) [5] [ng/mL] | Kd [6] [nM] | difference in affinity versus mAb 1 [7] [fold] | Kd [9] [nM] | Kd [10] [nM] | difference in affinity versus mAb 1 [11] [fold] | ADCC of KMS-12BM cells, EC50 (calcein release) [12] [ng/mL] | Fold difference in affinity versus mAb 1 [13] [fold] | Kd (human CD38 [16]) [nM] | koff (human CD38 [16]) [s⁻¹] | kon (human CD38 [16]) [M⁻¹ s⁻¹] | Kd (human CD38 [17]) [nM] | koff (human CD38 [17]) [s⁻¹] | kon (human CD38 [17]) [M⁻¹ s⁻¹] | other results
1 | mAb 1 (antibody, human IgG1, kappa, also called HEAVY CHAIN 1 / LIGHT CHAIN 1) heavy: not shown light: DIVMTQSHLSMSTSLGDPVSITCKASQDVSTVVAWYQQKPGQSPRRLIYSASYRYIGVPDRFTGSGAGTDFTFTISSVQAEDLAVYYCQQHYSPPYTFGGGTKLEIKRTVAAPSVFIFPPSDEQLKSGTASVVCLLNNFYPREAKVQWKVDNALQSGNSQESVTEQDSKDSTYSLSSTLTLSKADYEKHKVYACEVTHQGLSSPVTKSFNRGEC | 2.45 | 24.2 | 268 | 3.3 | 425 | 1 | 165 | 1180 | 1 | 41 | 1 |  |  |  |  |  |  | Kd [3]: 1300 nM; difference in affinity versus mAb 1 [8]: 1 fold
2 | mAb 4 (antibody, human IgG1, kappa, also called HEAVY CHAIN 4 / LIGHT CHAIN 1) heavy: QVQLVQSGAEVAKPGTSVKLSCKASGYTFTDYWMQWVKQRPGQGLEWIGTIYPGDGDTGYAQKFQGKATLTADKSSKTVYMHLSSLASEDSAVYYCARGDYYGSNSLDYWGQGTSVTVSSASTKGPSVFPLAPSSKSTSGGTAALGCLVKDYFPEPVTVSWNSGALTSGVHTFPAVLQSSGLYSLSSVVTVPSSSLGTQTYICNVNHKPSNTKVDKKVEPKSCDKTHTCPPCPAPELLAGPDVFLFPPKPKDTLMISRTPEVTCVVVDVSHEDPEVKFNWYVDGVEVHNAKTKPREEQYNSTYRVVSVLTVLHQDWLNGKEYKCKVSNKALPLPEEKTISKAKGQPREPQVYTLPPSRDELTKNQVSLTCLVKGFYPSDIAVEWESNGQPENNYKTTPPVLDSDGSFFLYSKLTVDKSRWQQGNVFSCSVMHEALHNHYTQKSLSLSPG light: DIVMTQSHLSMSTSLGDPVSITCKASQDVSTVVAWYQQKPGQSPRRLIYSASYRYIGVPDRFTGSGAGTDFTFTISSVQAEDLAVYYCQQHYSPPYTFGGGTKLEIKRTVAAPSVFIFPPSDEQLKSGTASVVCLLNNFYPREAKVQWKVDNALQSGNSQESVTEQDSKDSTYSLSSTLTLSKADYEKHKVYACEVTHQGLSSPVTKSFNRGEC | 0.09 | 15.9 | 58 | 0.12 | 47 | 1.5 | 28.1 | 544 | 2.2 | 0.45 | 5.9 |  |  |  |  |  |  | Kd [3]: 544 nM; difference in affinity versus mAb 1 [14]: 1.8 fold; fold higher affinity than mAb 1 [15]: 9 fold
3 | mAb 2 (antibody, human IgG1, kappa, also called HEAVY CHAIN 2 / LIGHT CHAIN 1) heavy: not shown light: DIVMTQSHLSMSTSLGDPVSITCKASQDVSTVVAWYQQKPGQSPRRLIYSASYRYIGVPDRFTGSGAGTDFTFTISSVQAEDLAVYYCQQHYSPPYTFGGGTKLEIKRTVAAPSVFIFPPSDEQLKSGTASVVCLLNNFYPREAKVQWKVDNALQSGNSQESVTEQDSKDSTYSLSSTLTLSKADYEKHKVYACEVTHQGLSSPVTKSFNRGEC | 0.09 | 13.5 | 119 | 0.1 | 47 | 1.8 | 17.6 | 840 | 1.4 | 0.65 | 9.4 |  |  |  |  |  |  | difference in affinity versus mAb 1 [14]: 3.9 fold; fold higher affinity than mAb 1 [15]: 9 fold
4 | mAb 5 (antibody, human IgG1, kappa, V domains shown, Humanized heavy and light chains with engineered Fc; also called anti-CD38 mAb 5; HEAVY CHAIN 5 / LIGHT CHAIN 2) VH: QVQLVQSGAEVAKPGASVKVSCKASGYTFTDYWMQWVRQAPGQGLEWIGTIYPGDGDTSYAQKFQGRVTMTADTSTSTVYMELSSLRSEDTAVYYCARGDYYGSNSLDYWGQGTLVTVSS VL: DIVMTQSPDSLAVSLGERATINCKSSQDVSTVLAWYQQKPGQSPRRLIYSASYRYIGVPDRFSGSGSGTDFTLTISSLQAEDVAVYYCQQHYSPPYTFGGGTKLEIKR |  |  |  |  |  |  |  |  |  |  |  | 0.699 | 0.00188 | 2.78e+06 | 0.828 | 0.00236 | 2.95e+06 | 
5 | mAb 6 (antibody, human IgG1, kappa, V domains shown, Humanized heavy and light chains with engineered Fc; also called anti-CD38 mAb 6; HEAVY CHAIN 5 / LIGHT CHAIN 3) VH: QVQLVQSGAEVAKPGASVKVSCKASGYTFTDYWMQWVRQAPGQGLEWIGTIYPGDGDTSYAQKFQGRVTMTADTSTSTVYMELSSLRSEDTAVYYCARGDYYGSNSLDYWGQGTLVTVSS VL: DIVMTQSPDSLAVSLGERATINCKSSQDVSTVVAWYQQKPGQSPRRLIYSASYRYIGVPDRFSGSGSGTDFTFTISSLQAEDVAVYYCQQHYSPPYTFGGGTKLEIKR |  |  |  |  |  |  |  |  |  |  |  | 0.385 | ~0.00119 | 3.1e+06 | 0.346 | 0.00128 | 3.86e+06 | 
6 | mAb 7 (antibody, human IgG1, kappa, V domains shown, Humanized heavy and light chains with engineered Fc; also called anti-CD38 mAb 7; HEAVY CHAIN 6 / LIGHT CHAIN 2) VH: QVQLVQSGAEVAKPGASVKVSCKASGYTFTDYWMQWVKQRPGQGLEWIGTIYPGDGDTGYAQKFQGRVTMTADKSTSTVYMELSSLRSEDTAVYYCARGDYYGSNSLDYWGQGTLVTVSS VL: DIVMTQSPDSLAVSLGERATINCKSSQDVSTVLAWYQQKPGQSPRRLIYSASYRYIGVPDRFSGSGSGTDFTLTISSLQAEDVAVYYCQQHYSPPYTFGGGTKLEIKR |  |  |  |  |  |  |  |  |  |  |  | 0.415 | 0.0013 | 3.18e+06 | 0.394 | 0.00133 | 3.39e+06 | 
7 | mAb 8 (antibody, human IgG1, kappa, V domains shown, Humanized heavy and light chains with engineered Fc; also called anti-CD38 mAb 8; HEAVY CHAIN 6 / LIGHT CHAIN 3) VH: QVQLVQSGAEVAKPGASVKVSCKASGYTFTDYWMQWVKQRPGQGLEWIGTIYPGDGDTGYAQKFQGRVTMTADKSTSTVYMELSSLRSEDTAVYYCARGDYYGSNSLDYWGQGTLVTVSS VL: DIVMTQSPDSLAVSLGERATINCKSSQDVSTVVAWYQQKPGQSPRRLIYSASYRYIGVPDRFSGSGSGTDFTFTISSLQAEDVAVYYCQQHYSPPYTFGGGTKLEIKR |  |  |  |  |  |  |  |  |  |  |  | 0.191 | 0.00065 | 3.51e+06 | 0.198 | 0.000663 | 3.53e+06 | 
